Laboratory results taken from PMC6629437 (Cell, 2019).
Changes are numbered by the printed parent chain. Numbers in names are those of the source.

B1: rFluA-20 IgG (recombinant FluA-20 IgG) (antibody, V domains shown)
VH: QVQLEESGPGLVKPSETLSLTCSVSGVSVTSDIYYWTWIRQPPGKGLEWIGYIFYNGDTNYNPSLKSRVTMSIDTSKNEFSLRLTSVTAADTAVYFCARGTEDLGYCSSGSCPNHWGQGTLVTVSS
VL: DIVMTQSPSSLSASIGDRVTITCRPSQNIRSFLNWFQHKPGKAPKLLIYAASNLQSGVPSRFSGSGSGTEFTLTIRSLQPEDFATYYCQQSYNTPPTFGQGTKVEIK
B2: rFluA-20 IgG D98A (H) (antibody, V domains shown)
VH: B1 VH with D103A
VL: B1 VL
B3: rFluA-20 IgG Y49A (L) (antibody, V domains shown)
VH: B1 VH
VL: B1 VL with Y49A

Assays:
[1] = biological target: H7 HA of A/Netherlands/219/2003, soluble trimer (Influenza A virus …, UniProt Q6VMK1, strain); assay: ELISA
[2] = biological target: H5 HA of A/Indonesia/5/2005 (Influenza A virus A/Indonesia/5/2005 …, UniProt A5A5L7, strain); assay: ELISA

Row | Binder | binding result [1] | binding result [2]
1 | B1 | binds | –
2 | B2 | – | no binding (tested: 10 μg/mL)
3 | B3 | – | no binding (tested: 10 μg/mL)
